Results reported in US20240287184A1 (GUANGDONG FAPON BIOPHARMA, published 2024).
Changes are numbered by the printed parent chain.

T1: human ICOS-hFc (human, UniProt Q9Y6W8 21-140)
T1 construct: Commercial protein; also called ICOS (ACRO); not shown: human Fc (hFc)
T1 sequence (looked up): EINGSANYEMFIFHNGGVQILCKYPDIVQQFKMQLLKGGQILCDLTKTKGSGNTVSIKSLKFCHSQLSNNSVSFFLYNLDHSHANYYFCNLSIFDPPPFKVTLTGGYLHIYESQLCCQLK

B1: anti-PD-1 humanized antibody c43 (antibody, V domains shown)
VH: QVQLVQSGAEVKKPGASVKVSCKASGYTFTTYYMYWVRQAPGQGLEWIGGINPSNGGTNYAEKFKGRVTLTVDTSTSTAYMELSSLRSEDTAVYYCTRRDSNYDGGFDYWGQGTTVTVSS
VL: DIQMTQSPSSLSASVGDRVTITCRASKSVSTSGYSYMHWYQQKPGKAPKLLIYLAYHLESGVPSRFSGSGSGTDFTLTISSLQPEDFATYYCQHSWELPITFGQGTKLEIKR
B2: anti-PD-1 humanized antibody c22 (antibody, V domains shown)
VH: B1 VH with I48M, Y60F, A61N, G66S, L70M, T74K
VL: B1 VL with M4L, V19A, L82V
B3: anti-PD-1 humanized antibody c53 (antibody, V domains shown)
VH: B1 VH with I48M, E62Q, K65Q, V68A, L70M
VL: B1 VL

Tests used:
[1] = biological target: T2, PD1 naturally expressed by activated human lymphocytes (PHA-activated PBMC) (human, UniProt Q15116 25-288); test: cell-based or functional assay
human CD28-hFc [2] = biological target: T3, human CD28-hFc (human, UniProt P10747 19-152); test: ELISA, antigen coated at 1 µg/mL
T3 construct: Commercial protein; also called CD28 (ACRO); not shown: human Fc (hFc)
Text: (§1) A horse radish peroxidase (HRP)-coupled anti-human IgG (F) was used as the secondary antibody. After developed with TMB and terminated, it was read for an OD450 value with a microplate reader.

human ICOS-hFc [3] = biological target: T1, human ICOS-hFc; test: ELISA, antigen coated at 1 µg/mL
Text: as §1

human CTLA4-hFc [4] = biological target: T4, human CTLA4-hFc (human, UniProt P16410 37-162, limits assumed); test: ELISA, antigen coated at 1 µg/mL
T4 construct: Commercial protein; also called CTLA-4 (ACRO); not shown: human Fc (hFc)
Text: as §1

[5] = biological target: T5, recombinant human PD-1 expressed on the surface of CHO cells (CHO-hPD1) (human, UniProt Q15116 25-288); test: flow cytometry on CHO-hPD1 cells
T5 construct: whole, on cells; also called CHO-PD1; hPD1-transfected CHO cells
Description: (§2) A CHO (Chinese Hamster Ovary Cells) cell line, CHO-hPD1, capable of expressing a recombinant human PD-1 on the cell surface, and a CHO cell line, CHO-cynoPD1, capable of expressing a monkey PD1 on the cell surface were prepared by recombinant technology. […] The specific method was: In order to evaluate the binding of the humanized antibody to the CHO-hPD1, 2×10⁵ CHO-hPD1 cells and the humanized antibody diluted in concentration gradient (with an initial concentration of 30 μg/mL, and diluted in 3-fold gradient) were added into a 96-well plate, and incubated at 4° C. for 30 minutes. The cells were washed once with a buffer (PBS containing 3% BSA) and then added with a PE-labeled anti-human IgG (Fc) Ab (Biolegend) fluorescent secondary antibody, incubated at 4° C. for 30 minutes, then washed once with the buffer and subsequently resuspended in PBS. Thereafter, the cell suspension was subjected to flow cytometric analysis by CytoFlex (Beckman flow cytometer), and the quantity of the antibody bound to the cells was measured according to the mean fluorescence intensity (MFI) of the staining. The same method was used for evaluating the binding of the humanized antibody to the CHO-cyno cells.

[6] = biological target: T6, monkey PD1 expressed on the surface of CHO cells (CHO-cynoPD1) (monkey); test: flow cytometry on CHO-cynoPD1 cells
T6 construct: whole, on cells
Description: as §2

[7] = biological target: T2, PD1 naturally expressed by activated …; test: flow cytometry on PHA-activated human PBMC
Description: After being obtained from fresh human peripheral blood by gradient centrifugation of lymphatic separation medium, the PBMCs were adjusted to the density of 1×10⁶ cells/mL and inoculated into T75, and meanwhile added with PHA-L (Sigma) at a final concentration of 1 μg/mL to stimulate the proliferation of lymphocytes. After being allowed to stand in an incubator at 37° C. and 5% CO₂ for 3 days, the cell suspension was taken out and centrifuged. The supernatant was discarded, and the precipitate was resuspended in a buffer (PBS containing 3% BSA) and added into a 96-well U-shaped plate at 2E5/well, then added with different concentration gradients of the humanized antibody, incubated at 4° C. for 30 minutes, and then centrifuged at 300 g for 5 minutes. The cells were washed once with the buffer, and added with a PE-labeled goat anti-human IgG fluorescent antibody (Biolegend), and incubated at 4° C. for 30 minutes. Then cells were centrifuged and washed once, resuspended in PBS, and subsequently analyzed by a CytoFlex flow cytometer to detect the quantity of the antibody bound to the PBMC.

human PD-1-hFc = biological target: T7, human PD-1-hFc (human, UniProt Q15116 25-167); test: ELISA, antigen coated at 1 µg/mL, antibody 10 µg/mL
T7 construct: Commercial protein; also called PD-1 (ACRO); not shown: human Fc (hFc)
Text: as §1

human CD28-hFc [8] = biological target: T3, human CD28-hFc; test: as above
Text: as §1

human ICOS-hFc [9] = biological target: T1, human ICOS-hFc; test: as above
Text: as §1

human CTLA4-hFc [10] = biological target: T4, human CTLA4-hFc; test: as above
Text: as §1

[11] = biological target: T8, PD-1-his (ACRO) recombinant protein (UniProt Q15116 25-167); test: BLI (ForteBio Octet), PD-1-his loaded on sensor, antibody in solution
T8 construct: Commercial protein; not shown: his tag
Description: Finally, analysis was conducted by utilizing a kinetic model, and data processing was conducted.

[12] = biological target: T5, recombinant human PD-1 expressed on the …; test: flow cytometry, blocking of PD-L1-mFc (0.2 µg/mL) binding to CHO-hPD1
Description: (§3) The ability of the anti-PD-1 humanized antibody to block the binding of the ligand to a transfected CHO cells which could stably express PD-1 on the surface was analyzed by a flow cytometer.
(§4) The CHO-PD1 cells were resuspended with a buffer (PBS containing 3% BSA), and adjusted to the density of 2×10⁶ cells/mL. The cell suspension was added into a 96-well U-shaped plate at 100 μL/well and centrifuged at 300 g for 5 minutes, and then the supernatant was discarded.
(§5) The cells were centrifuged at 300 g for 5 minutes, washed once with the buffer, added with a PE-labeled goat anti-mouse IgG fluorescent antibody (Biolegend), and incubated at 4° C. for 30 minutes. The cells were centrifuged and washed once, then resuspended in PBS, and subsequently analyzed by a CytoFlex flow cytometer to detect the quantity of the ligand protein bound to the cells, and calculate the IC₅₀ value of the PD-1 antibody in blocking the binding.

[13] = biological target: T5, recombinant human PD-1 expressed on the …; test: flow cytometry, blocking of PD-L2-mFc (0.2 µg/mL) binding to CHO-hPD1
Description: as §3, §4, §5

T8 sequence (Q15116 25-167 limits assumed): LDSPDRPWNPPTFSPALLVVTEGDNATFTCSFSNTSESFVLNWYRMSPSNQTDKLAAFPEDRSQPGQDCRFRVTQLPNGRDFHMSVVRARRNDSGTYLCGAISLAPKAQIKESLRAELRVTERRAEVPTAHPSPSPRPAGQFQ
T7 sequence (Q15116 25-167 limits assumed): as above
T4 sequence (P16410 37-162 limits assumed): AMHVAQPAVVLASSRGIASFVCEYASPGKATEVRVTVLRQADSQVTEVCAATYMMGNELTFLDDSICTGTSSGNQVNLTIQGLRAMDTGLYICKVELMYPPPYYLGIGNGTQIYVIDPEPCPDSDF
T2 sequence (Q15116 25-288): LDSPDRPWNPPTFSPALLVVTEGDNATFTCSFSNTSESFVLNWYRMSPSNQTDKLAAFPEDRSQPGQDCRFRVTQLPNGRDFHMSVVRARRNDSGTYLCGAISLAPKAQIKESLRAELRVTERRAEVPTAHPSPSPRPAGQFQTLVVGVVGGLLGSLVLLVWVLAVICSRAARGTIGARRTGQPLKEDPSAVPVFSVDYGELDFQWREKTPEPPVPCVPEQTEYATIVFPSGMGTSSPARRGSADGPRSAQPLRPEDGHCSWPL
T5 sequence (Q15116 25-288): as above

Binder | IFNγ EC50 (mixed lymphocyte reaction) [1] [nM] | IL2 EC50 (mixed lymphocyte reaction) [1] [nM] | binding result (human CD28-hFc [2]) | binding result (human ICOS-hFc [3]) | binding result (human CTLA4-hFc [4]) | EC50 [5] [nM] | EC50 [6] [nM] | EC50 [7] [nM] | OD450 (human PD-1-hFc) [OD450] | OD450 (human CD28-hFc [8]) [OD450] | OD450 (human ICOS-hFc [9]) [OD450] | OD450 (human CTLA4-hFc [10]) [OD450] | Kd [11] [nM] | koff [11] [s⁻¹] | kon [11] [M⁻¹ s⁻¹] | IC50 [12] [nM] | IC50 [13] [nM]
B1 | 2.73 | 2.79 | no binding (tested: 10 µg/mL) | no binding (tested: 10 µg/mL) | no binding (tested: 10 µg/mL) | 1.58 | 0.894 | 0.281 | 1.23 | 0.189 | 0.131 | 0.255 | < 0.001 | < 1e-07 | 984000 | 3.14 | 7.95
B2 | 0.727 | 13.3 | no binding (tested: 10 µg/mL) | no binding (tested: 10 µg/mL) | no binding (tested: 10 µg/mL) | 1.68 | 0.63 | 0.141 | 1.33 | 0.18 | 0.117 | 0.209 | < 0.001 | < 1e-07 | 985000 | 3.1 | 6.88
B3 | 6.65 | 1.88 | no binding (tested: 10 µg/mL) | no binding (tested: 10 µg/mL) | no binding (tested: 10 µg/mL) | 1.71 | 0.743 | 0.213 | 1.48 | 0.176 | 0.133 | 0.239 | < 0.001 | < 1e-07 | 979000 | 3.02 | 7.05
